Measurements: publication PMC6602975

Legend:
[1] = target: Unmodified nucleosome core particle (X. laevis histone octamer on 147 bp Widom-601 DNA) (X. laevis); test: native gel or EMSA; increasing amounts of Orc1 or Sir3 proteins with 50 or 25 nM nucleosomes; 10 mM Tris pH 7.5, 50 mM NaCl, 2.5% glycerol, 1 mM DTT; room temperature, 30 min; native PAGE 6% (Sir3) or 8% (Orc1), 0.2X TBE; decrease of free nucleosome; apparent KD from a Hill fit
[2] = target: H4K16ac nucleosome (X. laevis | not stated); test: as above

Chain of Wild-type Orc1 (1–214) BAH domain (P54784 1-214): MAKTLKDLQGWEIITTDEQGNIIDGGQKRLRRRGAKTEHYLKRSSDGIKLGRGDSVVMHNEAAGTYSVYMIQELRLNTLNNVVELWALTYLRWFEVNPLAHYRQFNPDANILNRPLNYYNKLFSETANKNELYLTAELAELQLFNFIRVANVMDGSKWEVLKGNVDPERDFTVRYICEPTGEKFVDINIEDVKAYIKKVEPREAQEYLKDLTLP

Kd [1]: 1300 nM
Kd [2]: 1500 nM
Substance: Wild-type Orc1 (1–214) BAH domain (from UniProt P54784 1-214) (domain or fragment)
